Source: US20210047398A1, “ASPROSIN, A FAST-INDUCED GLUCOGENIC PROTEIN HORMONE” (Baylor College of Medicine, priority 2016, published 2021)

Tests used:
[1] = tested on: hepatic glucose production; test: Hyperinsulinemic-euglycemic clamp; assay type: in vivo, mice
Method: Animals. […] MgR heterozygous mice were obtained from Jackson labs, and bred to obtain male MgR homozygous mice and WT littermates. 5-week-old male Ob/Ob mice were obtained from Jackson labs. […] For diet induced obesity studies, mice were placed on the adjusted calories diet providing 60% of calories from fat by Harlan-Teklad for 12 weeks. […] Mice were exposed to 30 μg recombinant His-tagged asprosin or recombinant Green Fluorescent Protein (GFP) daily for 10 days via subcutaneous injection. Mice were sacrificed and plasma and various organs were isolated 10 days after virus or peptide injection. For single dose injections, the same protocol was followed as that for daily injections, followed by collection of plasma at the indicated times via tail bleeds for insulin and glucose measurement. Insulin and glucose tolerance tests (ITT and GTT) were performed using standard procedures. […] For immunologic sequestration experiments, mice were injected intra-peritoneally with a 500 μg dose in saline of a custom-built (Thermo Scientific Inc.) anti-asprosin mouse monoclonal antibody directed against amino acids 106-134 (human profibrillin amino acids 2837-2865) or an equivalent dose of isotype matched IgG (Southern Biotech, Inc.). […] The Baylor College of Medicine Institutional Animal Care and Utilization Committee approved all experiments.

[2] = Plasma His-tag sandwich ELISA after subcutaneous injection; assay type: in vivo, mice; conditions: 30 μg subcutaneous injection
Method: FIGS. 22A-22E: Asprosin traffics to the liver in vivo and binds the hepatocyte surface with high affinity in a saturable and competitive manner. (FIG. 22A) SPECT scans were performed 15 minutes after intravenous injection with 150 μCi I125-asprosin, boiled I125-asprosin, or free I125 in live, anesthetized mice previously injected with bismuth as a hepatic contrast agent. 3 representative images are shown in axial and coronal planes. (FIG. 22B) Liver asprosin accumulation was measured as liver photon intensity from mice in (FIG. 22A). (FIG. 22C) Tissue radioactivity (normalized to tissue weight) was measured using a γ-counter after sacrificing mice from (FIG. 22A), 45 minutes following injection (n=4 mice). (FIG. 22D) Sandwich ELISA was used to measure plasma His tag (recombinant asprosin contains an N-terminal His tag) in WT mice before injection and 15, 30, 60 and 120 minutes after injection with 30 μg recombinant asprosin. The time taken for peak signal to fall to half-maximal level is indicated by the arrow. […] Specific binding (shown in red) was calculated as the difference between the two curves. Data are represented as the mean±SEM.
Sandwich ELISA and Western Blot. […] Increasing amounts of recombinant asprosin (which contains an N-terminal His tag) were used to generate a standard curve for both assays. EDTA-plasma was used for plasma sandwich ELISAs and serum-free DMEM concentrated using Vivaspin protein concentrator spin columns by GE Life Sciences Inc. was used for media sandwich ELISAs.

B1: recombinant asprosin: 146 amino acid E. coli expressed fusion protein: 6 amino acid N-terminal His tag and 140 amino acid wild type asprosin (FBN1 2732-2871) (protein)
chain: HHHHHHSTNETDASNIEDQSETEANVSLASWDVEKTAIFAFNISHVSNKVRILELLPALTTLTNHNRYLIESGNEDGFFKINQKEGISYLHFTKKKPVAGTYSLQISSTPLYKKKELNQLEDKYDKDYLSGELGDNLKMKIQVLLH
- hepatic glucose production ([1]; elevated plasma asprosin, 10 days after FBN1 adenovirus (FIG. 21C)): increased hepatic glucose production
- ability of peripheral organs to take up glucose in response to insulin ([1]; glucose disposal rate, FIG. 21D): no impact
- plasma half-life ([2]; His-tag ELISA): approximately 20 minutes
- peak level in plasma ([2]; mice): 50 nM
- time of peak level after injection ([2]; mice): 20 min
